Measurements from publication doi:10.64898/2025.12.11.693838 (bioRxiv, 2025).

B1: Staphylococcal atypical 2-Cys peroxiredoxin / thiol peroxidase, wild type (WT-SaTpx) (enzyme, UniProt Q2FXL3 1-164, looked up)
chain: MTEITFKGGPIHLKGQQINEGDFAPDFTVLDNDLNQVTLADYAGKKKLISVVPSIDTGVCDQQTRKFNSDASKEEGIVLTISADLPFAQKRWCASAGLDNVITLSDHRDLSFGENYGVVMEELRLLARAVFVLDADNKVVYKEIVSEGTDFPDFDAALAAYKNI
B2: N-terminal β-flap deletion mutant of SaTpx (NΔ15-SaTpx) (domain or fragment, UniProt Q2FXL3 16-164, looked up)
chain: QQINEGDFAPDFTVLDNDLNQVTLADYAGKKKLISVVPSIDTGVCDQQTRKFNSDASKEEGIVLTISADLPFAQKRWCASAGLDNVITLSDHRDLSFGENYGVVMEELRLLARAVFVLDADNKVVYKEIVSEGTDFPDFDAALAAYKNI

Molecular target: the molecule itself
Test: crystal structure

Protein	stoichiometry N
B1	2
B2	2
